assay: yeast display, Sf9 membrane polyspecificity reagent, FACS + sequencing; frameworks hold sequencing errors
Procedure, shortened: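 Sorting gates, low and high (top ~1%), were placed on anti-HA fluorescence to track expression and on streptavidin fluorescence to track reagent binding. A clone's polyreactivity label is taken from the gate it came out of. The reagent was 10% biotinylated, detergent-solubilized Sf9 membrane, applied for 1 hour at 4 °C to galactose-induced yeast display cells.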

Sequence | polyreactivity (PSR sort gate)
QVQLVESGGGLVQAGGSLRLSCAASGGTFGVNAMGWYRQAPGKERELVAAISSSGGRTYYADSVKGRFTISRDNAKNTVYLQVNSLKPEDTAVYYCAARNYFWGQGTQVTVSS | low polyreactivity
QVQLVESGGGLVQAGGSLRLSCAASGGTFGVYAMGWYRQAPGKERELVAAIDWDDGNTYYADSVKGRFTLSRDNAKNTVYLQMNSLKPEDTAVYYCAAVVFSRRYWVKFYYWGQGTQVTVSS | high polyreactivity
QVQLVESGGGLVQAGGSLRLSCAASGGTFGYNAMGWYRQAPGKERELVAAISYSGTSTYYADSVKGRFTISRDNAKNTVYLQMNSLKPEVTAVYYCNAGRYIKMGDWGQGSQVTVSS | high polyreactivity
QVQLVESGGGLVQAGGSLRLSCAASGGTFGYNAMGWYRQAPWKERELVAAISSGGRTYYADSVKGRFTISRDNAKNTVYLQMNSLKPEDTAVYYCNARKGLYYGGRYDYWGQGTQVTVSS | high polyreactivity
QVQLVESGGGLVQAGGSLRLSCAASGGTFGYYAMGWYRQAPGKERELVAAITSGGSTNYADSVKGRFTISRDNAKNTVYLQMNSLKPEDTAVYYCAARYINRYPKAQPTDRSIYYWGQGTQVTVSS | high polyreactivity
QVQLVESGGGLVQAGGSLRLSCAASGGTFHGYAMGWYRQAPGKERELVAAINWSGTSTYYADSVKGRFTISRDNAKNTVYLQMNRLKPEDTAVYYCAAAYFRGTYYYWGQGTQVTVSS | high polyreactivity
QVQLVESGGGLVQAGGSLRLSCAASGGTFKANAMGWYRQAPGKERELVAAIRQTGGSTYYADSVKGRFTISRDNAKNTVYLQMNSLKPEDTAVYYCAAQSHRYCIYDYWGQGTQVTVSS | high polyreactivity
QVQLVESGGGLVQAGGSLRLSCAASGGTFKFFAMGLYRQAPGKERELVAAITSGGSTNYADSVKGRFTISRDNAKNTVYLQMNRLKPEDTAVYYCAVDSLPNSPYDYWGQGTQVTVSS | low polyreactivity
QVQLVESGGGLVQAGGSLRLSCAASGGTFLGNAMGWYRPAPGKERELVADITSGGSTNYADSVKGRFTISRDNAKNTVYLQMNSLKPEDTAVYYCNAEYSTSTVWEYDYWGQGTQVTVSS | low polyreactivity
QVQLVESGGGLVQAGGSLRLSCAASGGTFLSNAMGWYRQAPGKERELVASISWGGGSTTYADSVKGRFTISRDNAKNTVYLQMNSLKPEDTAVYYCNALDGPGYYVDYDYWGQGTQVTVSS | low polyreactivity
QVQLVESGGGLVQAGGSLRLSCAASGGTFLVNAMGWYRQAPGKERELVATITARVGSTYYADSVKGRFTISRDNAKNTVYLQMNSLKPEDTADYYCAAYPQLWYWDYNYWGQGTQVTVSS | high polyreactivity
QVQLVESGGGLVQAGGSLRLSCAASGGTFLVNAMGWYRQSPGKEREWVATITARVASTYYADSVTGRFTISRDNAKNTVYLQMNTLKPEDTAVYYCAARKVWGYTYGYPYYYWGQATQVTVSS | high polyreactivity
QVQLVESGGGLVQAGGSLRLSCAASGGTFLVYAMGWYRQAPGKERELVAAITRSGGSTYYADSVKGRFTISRDNAKNTVYLQMNSLKPEDTAVYYCNARYRNSGRYWDWYYYWGQGTQVTVSS | high polyreactivity
QVQLVESGGGLVQAGGSLRLSCAASGGTFLYYAMGWYRQAPGKERELVAAISRGGSTHYADSVKGRFTISRDNAKNTVYLQMNSLKPEDTAVYYCAADRSHRKRINFYDYWGQGTQVTVSS | low polyreactivity
QVQLVESGGGLVQAGGSLRLSCAASGGTFLYYMGWYRQAPGKEMELVAAITFSGGSTYYADSVKGRFTISRDNAKNTVYLQMNSLKPEDTAVYYCAAGWYDWPKYLLSVYTYYLYDSWGQGTQVTVSS | low polyreactivity
QVQLVESGGGLVQAGGSLRLSCAASGGTFNGYALGWYRQAPGKERELVAAITSGGGSTYADSVKGRFTISRDNAKNTVYLQMNSLKPEDTAVYYCNADQWDEWFWDYDYWGQGTQVTVSS | low polyreactivity
QVQLVESGGGLVQAGGSLRLSCAASGGTFPFNAMGRYRQAPGKEREFVAAISFRGGSTYYADSVKGRFTISRDNAKNTVYLQMNSLKPEDTAVYSCAAYRLRPRNGVYRMDYWGQGTQVTVSS | high polyreactivity
QVQLVESGGGLVQAGGSLRLSCAASGGTFPGYTMGWNRQAPGKERELVAAISGSGVSTYYADSVKGRFTISRDNAKNTVYLQMNSLKPEDTAVYYCARTYRSYSRYPFVRFDYWGQGTQVTVSS | high polyreactivity
QVQLVESGGGLVQAGGSLRLSCAASGGTFPSYAMGWYRQAPGKERELVAAISWSGGRTYYADSVKGRFTISRDNAKNTVYLQMNSLKPEDTAVYYCNADDYGYSFNYWGQGTQVTVSS | high polyreactivity
QVQLVESGGGLVQAGGSLRLSCAASGGTFPYNAMGGYRQAPGKERELVAVITSGDGTYYADSVKGRFTISRDNAKNTVYLQMNSLKPEDTAVYYCAADYVVWFSFVYVVEYDYWGQGTQVTVSS | low polyreactivity
QVQLVESGGGLVQAGGSLRLSCAASGGTFPYSAMGWYRQAPGKERELVAAISRSGARTYYADSVKGRFTISRDNAKNTVYLQMNSLKPEDTAVYYCATDNTYGYDYWGQGTQVTVSS | high polyreactivity
QVQLVESGGGLVQAGGSLRLSCAASGGTFQLNAMGWYRQAPGKERELVATITTGGSTYADSVKGRFTISRDNAKNTVYLQMNSLKPEDTAVYYCNKTCFLVKLDYWGQGTQVTVSS | low polyreactivity

Sequence | polyreactivity (PSR sort gate)
QVQLVESGGGLVQAGGSLRLSCAASGGTFQRYVMGWYRQAPGKERELVAAISRSGSTYADSVKGRFTISRDNAKNTVYLQMKSLKPEDTAVYYCNVVSYYRYYLHGYDYWGQGTQVTVSS | high polyreactivity
QVQLVESGGGLVQAGGSLRLSCAASGGTFQYHAMGWYRQAPGKERELVAAITRSGGSTYYADSVKGRFTISRDNAKNTVYLQMNSLKPEDTAVYYCAVRYVYGYPRYNYWGQGTQVTVSS | high polyreactivity
QVQLVESGGGLVQAGGSLRLSCAASGGTFRNNAMGWYRQAPGKERELVAAISWSGGRTYYADSVKGRFTISRDNAKNTVYLQMNSLKPEDTAVYYCAASYSGRQDRYPHYDYWGQGTQVTVSS | low polyreactivity
QVQLVESGGGLVQAGGSLRLSCAASGGTFRPNAMGLYRQAPGKERELVAAISYTGSTYYADSVKGRFTISRDNAKYTVYLQMNSMKPEDTAVYYCAAYGYHRYYLYDYWGQGTQVTVSS | low polyreactivity
QVQLVESGGGLVQAGGSLRLSCAASGGTFRYYALGWYRQAPGKERALVAAISSGGSTNYADSVKGRFTISRDNAKNTVYLQMNSLKPEDTAVYYCAADVIYYYAYYTYDYWGQGTQVTVSS | low polyreactivity
QVQLVESGGGLVQAGGSLRLSCAASGGTFSFNAMGWSRQAPGKERELVATISWDGGSTYYADSVKGRFTISRDNAKNTVYLQMYSLKPEDTAVYYCNKYVFDRYIYETEYDYWGQGTQVTVSS | high polyreactivity
QVQLVESGGGLVQAGGSLRLSCAASGGTFSFYTMVWYRQAPGKERELVAAIDSTGRTNYADSVKGRFTISRDNAKNTVYLQMNSLKPEDTAVYYCAAGPPRADYDYWGQGTQVTVSS | low polyreactivity
QVQLVESGGGLVQAGGSLRLSCAASGGTFSNNAMGWYRQAPGKERELVAAISNSGGRTYYADSVKGRFTISRDNAKNTVYLQMNSLKPEDTAVYYCNVRRGYWHPGYGWANYDYWGQGTQVTVSS | high polyreactivity
QVQLVESGGGLVQAGGSLRLSCAASGGTFSPNTMGWYRQAPGKERELVAAISSSGSTSYADSVKGRFTISRDNAKNTVYLQMNSLKPEDTAVYYCNADDTISYYASGFDNYHYWGQGTQVTVSS | low polyreactivity
QVQLVESGGGLVQAGGSLRLSCAASGGTFSPYAMGWYRQAPGKERELVAVIRSDVTTNYADSVKGRFTISRDNAKNTVYLQMNSLKPEDTAVYYCAVQYLGYGGLFPLDYWGQGTQVTVSS | low polyreactivity
QVQLVESGGGLVQAGGSLRLSCAASGGTFSPYDMGWYRQAPGKERELVASITGSGGSTYYADSVKGRFTISRGNAKNTVYLQMNSLKPEDTAVYYCAAQGYWTYWPYLLRLYDYWGQGTQVTVSS | low polyreactivity
QVQLVESGGGLVQAGGSLRLSCAASGGTFSRNAMGWYRQAPGKERELVAAINSSGVSTSYADSVKGRFTISRDNAKNTVYLQMNSLKPEDTAVYYCADETSSAEVDYWGQGTQVTVSS | low polyreactivity
QVQLVESGGGLVQAGGSLRLSCAASGGTFSRNAMGWYRQAPGKERELVAAITSGGRTNYADSVKGRFTISRDNAKNTVYLKMNSLKAEDTAVYYCAARKGKETLYHSTPPYYYWGQGTQVTVSS | high polyreactivity
QVQLVESGGGLVQAGGSLRLSCAASGGTFSSNAMGWYRQAPGKERELVAAITWSGGSTYYADSVKGRFTISRDNAKNTVYLQMNSLKPEDTAVYYCNARNQWRTVGKYDYWGQGTQVTVSS | low polyreactivity
QVQLVESGGGLVQAGGSLRLSCAASGGTFSSNDMGWYRQAPGKERELVAAISWSGSSTDYADSVKGRFTISRDNAKNTVYLQMNSLKPDDTAVYYCNTDYWEITYSGVIWPEYDYWGQCTQVTVSS | low polyreactivity
QVQLVESGGGLVQAGGSLRLSCAASGGTFSTNAMGWYRQAPGNERELVAAISLSGGRTDADSVKGRFTISRDNAKNTVYLQMNSLKPEDTAVYYCNADSAGITRARSELDYWGQGTQVTVSS | low polyreactivity
QVQLVESGGGLVQAGGSLRLSCAASGGTFSVYGMGGYRQAPGKERELVAAITLSGGRTYYADSVKGRFTISRDNATNTLSLQMNSLQPEDTAVYYCNTLPWSRTKRDYWGQGTQGTVSS | low polyreactivity
QVQLVESGGGLVQAGGSLRLSCAASGGTFSYNAMGWYRQAPGKERELVAAISWSGTRTYYADSVKGRFTISRDNAKNTVYLQMNSLKPEDTAVYYCNKTPPNRGRYDYCGQGTQVTVSS | low polyreactivity
QVQLVESGGGLVQAGGSLRLSCAASGGTFSYYAMGWYRQAPGKERELVASISTDGGSTYYADSVKGRFTISRDNAKNTVYLQMNSLKPEDTAVYYCNARPRGYSDRYGYWGQGTQVTVSS | high polyreactivity
QVQLVESGGGLVQAGGSLRLSCAASGGTFSYYTMGWYRQAPGKERELVARISKNGGRTYYADSVKGRFTISRDNAKNTVYLQMNCLKPEDTAVYYCNAAGRTYDFSGGRTMEYWGQGTQVTVSS | high polyreactivity
QVQLVESGGGLVQAGGSLRLSCAASGGTFTFYAMGWYRQAPGKERELVATINWSGGSTYYADSVKGRFTNSRDNAKNTVYLQMNSLKPEDTAVYYCNAAWAYKSVEYWGQGTQVTVSS | low polyreactivity

Source: the nanobody polyreactivity screen of Harvey et al. (2022)
